Drawing on article PMC5536072, this text covers Kd for two substances.

This series deals with p53 (full-length human) (Homo sapiens). Put plainly: AFM. As to conditions: AFM on mica, 'physiological buffer conditions', binding buffer and temperature not given in the material, DNA stock in 10 mM Tris-HCl pH 7.6, 1 mM EDTA.

Usually Kd stands for the concentration at which binding is half-saturated. For the setting “logistic fit of site occupancy against p53 18.9-56.6 nM, DNA 1 ng/uL”, 20,000 bp DNA yielded a Kd of 328 nM.

The substance 5000 bp DNA had a Kd (stated as approximately the same Kd as for 20,000 bp DNA, p53 18.9-56.6 nM) of 328 nM.
